Consider 38 variants from the RNAGym collection of RNA variant scans (doi:10.1073/pnas.2313332121).

B1: TPR 5TU (parent)
chain: GGAUCUUCUCGAUCUAACAAAAAAGACAAAUCUGCCACAAAGCUUGAGAGCAUCUUCGGAUGCAGAGGCGGCAGCCUUCGGUGGCGCGAUAGCGCCAACGUUCUCAACUAUGACACGCAAAACGCGUGCUCCGUUGAAUGGAGUUUAUCAUG

Fewer inactive variants are shown than the library holds.

In the data set the parent is B1. Put plainly: polymerase ribozyme fitness, log enrichment relative to wild type (log ratio); higher = more active; in vitro selection for triplet polymerase activity. In outline:
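Each subunit of a heterodimeric triplet polymerase ribozyme was mutagenized into a library by PCR, transcribed, and subjected to one round of in vitro selection, run in triplicate. Libraries were annealed with a biotinylated primer, the partner subunit and triplets, incubated frozen at −7 °C, and extended constructs were gel-excised, captured on streptavidin beads and recovered by RT-PCR. Input and output libraries were sequenced on Illumina, keeping genotypes with ≥10 input reads and ≥1 read per output. Fitness is log base 2 of genotype enrichment divided by wild-type enrichment, from inverse-variance-weighted replicate averages.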
Turning to GGAUCUUCUCGAUCUAACAAAAAAGACAAAUCUGCCAAAAAGCUUGAGAGCAUCCUCGGAUGCAGGGGCGGCAGCCUUCAGUGGCGCGAAAGCGCCAACGUUCUCAACUAUGACACGCAAAACGCGCGCUCCGUUGAAUGGAGUUUAUCAUG, the “polymerase ribozyme fitness (log ratio)” value is not above -4.2.
Regarding GGAUCUUCUCGAUCUAAGAAUAAAGACAAAUCUGCCACAAAGCUUGAGAGCAUCUUCGGAUGCAGAGGCGGCAGCCUUCGGUGGCGCGAUAGUGCCAACGUUCUCAACUAUGACACGCAAAACGCGUGCUCCGUUGAAUGUAGUUUAUCAUG, the “polymerase ribozyme fitness (log ratio)” value was 0.314.
In the case of GGAUCUUCUCGAUCUAACAAAAAAGACAAAACUGCCACAAAGCUUAAGAGCAUCUUCGGAUGCAGAGGCGGCAGCCUUCGGCGGCGCGGUAGCGCCAACGUUCUCAACUAUGACACGCAAAACGCGUGCUCCGUUGAAUGGAGUCUAUCAUG it was -3.66.
With GGAUCUUCUCGAUCUAAGAAAAAAGACAAAUCUGCCACAAAGCUUGAGAGCAACUUCGGAAGCAGAGGCGGCAGCCUUCGGUGGCGCGAUAGCGCCAACGUUCUCAACUAUGACACGCAAAACGCGUGCUCCGUUGCAUGGAGUUUAUCAUG, the “polymerase ribozyme fitness (log ratio)” value was not above -4.2.
In the case of GGAUCUUCUCGAUCUAUCAAAAAUGACAAAUCUGCCACAAAGCUUGAGAGCGUCUUUGGAUGCAGAGGCGGCAGCCUUCGGUGGCGCGAUAGCGCGAACGUUCUCAACUAUGACACGCAAAACGCGUGCUCCGUUGAAUAGAGUUUAUCAUG it was not above -4.2; in that of GGAUCUUCUCGAUCUAACAAAAAAGACAAAUCUGCCACAAAGCUUGAGAGCAUCUUCGGAAGCAGAGGCGGCAGCCUUCGGUGGCACGAUAGCGCCAACGUUCUCAACUAUGACACGCAAAACGCGUGCUCCGUUGAAUGGAGUUUAUCAUG, -2.67; in that of GGAUCUUCUCGAUCUAACAAAAAAGACAAAUCUGCCACAAAGCUUGAGAGCAUCUUCGGAUGCAGAGGCGGCAGCCUUCGGUGGCGCGAUAGCGCCAACGUUCUCAACUAUGACACGCAAAACGCGUUCUCCGUUGAAAGGGGUUUAUCAUG, -4.07.
For GGAUCUUCUCGAUCUAACAAAAAAGACAAAUCUGCCACAACGCUUGAGAGCAUCUUCGGAUGCAGAGGCGGCAGCCUUCGGAGGCGCGAUAGCGCCAACGUUCUCAACUAUGACACGCAAAACGAGUGCUCCGUUGAAUGGAGUUUAUCAUG the value was -0.821.
Regarding GGUUCUUCUCGAUCUAACAAAAAUGACAAAUCUGCCACAAAGCUUGAGAGCUUCUUCGGGUGCAGAGGCGGCAGCCUUCGGUGGCGCGAUAUCGCCAACGUUCUCAACUAUGACACGCAAAACGCGUGCUCCGUUGAAUGGAGUUUAUCAUG, the “polymerase ribozyme fitness (log ratio)” value is -2.23.
In the case of GGAUCUUCUCGAUCUAACAAAAAAGACAAAUGUGCCACAAAGCUUGAGAGCAUCUUAGAAUGCAGAGGCGGCAACCUUCGGUGGUGCGAUAGCGCCAACGUUCUCAACUAUGACACGCAGAACGCGUGCUCCGUUGAAUGGAGCUUAUCAUG it was -2.27; in that of GGAUCUUCUCGAUCUAACAAUAAAGACAAAUCUGCCACAAAGCUUGAGAGCAUCUUCGGAUGCAGAGGCGGCAGCCUUCGGUAGCGCGAUAGCGCCAACGUUCUCAACUAUGACACGCAAAACGCGUGCUCCGUUGAAUGGAGUUUAUCAUG, -1.45.
In the case of GGAUCUUCUCGAUCUAACAAAUAAGACAAAUCUGCCACAAAGCUUGAGAGCAACUUCGGAUGCAGAGGCGGCAGCCUUCGGUGGCGCGAUAACGCCAACGUUCUCAACUAUGACACGCAAAACGCGUGCUCCGUUGAAUGAAGUUUAUCAUG it was -3.56; in that of GGAUCUUCUCGAUAUAUCAAAAAAGACAAAUCUGCCACAAAGCUUGAGAGCAUCUUCGGAUGCAGAGGCGGCAGCCUUCGGUGGCGCGAUAGCGCCAACGUUCUCAACUAUGACGCGCAAAACGCGUGCUCCGUUGAAUGGAGUUUAUCAUG, -3.2; in that of GGAUCUUCUCGAUCUAACAAAAAAGACGAAUCUGCCACAAAGCUUGAGAGCAUCUUCGGAGGCAGAGGCGGCAGACUUCGGUGGCGCGAUAGUGCCAACGUUCGCAACUAUGACACGCAAAACGCGUGCUCCGUAGAAUGGAGUUUAUCAUG, not above -4.2.
In the case of GGAUCUUCUCGAUCUAACAAAAAAGACAACACUGCCACAAAGCUUGAGAGCAUCUUCGGAUGCAGAGGCGGCAGACUUAGGUGGCGCGAUAGCGCCAACGUUCUCAACUAUGACACGCAAAACGCGUGCUCCGUUGAAUGGAGAUUAUCAUG it was not above -4.2; in that of GGAUCUUCUCGAUCUAACAAAAAAGACAAAUCUGCCACAAAGCUUGAGAGCAUCUUCGGAAGCAGAGGCGGCAGCCUUCGGUGACGCGAUAGCGCCAACGUUCUCAACUAUGACACGCAAAACGCGUGCUCCGAUGAAUGGAGUUUAUCAUG, -3.68.
On to GGAUCUUCUCGAUCUAACAAACAAGACAAAUCUGCCACAAAGCUUGAGAGCAUCUUCGGAUGCAGAGGCGGCAGCCUUCGGUGGGGCGAUAGCGCCAACGUUCUCAACUAUGACACGCAAAACGCGUGCUCCGUUGAAUGGAGUUUAUCGUG, for which the “polymerase ribozyme fitness (log ratio)” value was -2.71.
In the case of GGAUCUUCUCGAUCUAACAAAAAAGACAAAUCUGCCACAAAGCUUGGGAGCAUCUUCGGAUGCAGAGGCGGCUGCCUUCGGUGGCGCGAUAGCGCCAACGUUCUCAACUAUGACACGCAAAACGCGUGCUCCGUUGAAUGGAGUUUAUCAUG it was -1.81.
For GGAUCUUUUCGAUCUAACAAAAAAGACAAAUCUGCCACUAAGCUUGAUAGCAUCUUCGGAUGCAGAGGCGGCAGCCUUCGGUGGCGCGAUAGCGCCAACGUUCUCAACUAUGACACGCAAAACGCGUGCUCCGAUGAAUGGAGUUUAUCAUG the value was not above -4.2; for GGAUCUUCUCGAUCUAACAAAAAAGACAAAUCUGCCACAAAGCUUGAGAACAUCUUCGGAUGCAGAGGCGGCAGCAUUCGGUGGCGAGAUAGCGCCGACGUUCUCAACUAUGACACGUAAAACGCGUGCUCCGUUGAAUGCAGUUUAUCAUG, not above -4.2; for GGAUCUUCUCGAUCUAACAAAAAAGACAAAUCUGCCACAAAGCUUGAGAGCAUCUUCGGAUGCAGAGGCGGCAGCCUUCGGUGGCGCGAUAGCGCCAACGUUCUCAACUAUGACACGCAAAACACGUGCUCCUUCGAAUGGAGUUUAUCAUG, -3.82.
As for GGAUCUUCUCGAUCUAACAAAAAAGACAAAUCUGCCACAAAGCUUGAGAGCAUCUUCGGAUGCAGAGGCGGCAGCCUUCGGUGGCGCGAUAGCGCCAACGUUCUCAACCAUGACAUGCAAAACGCGUGCUUCGUUGAAUGGAGUUUUUCAUG, the “polymerase ribozyme fitness (log ratio)” value was -1.68.
For GGAUCUUCUCGAUCUAACAAAAAAGACAAAUCUGCCACAAAGCUUGAGAGCAUCUUCGGAUGCAGAGGCGGCAGCCUUCGGUGGAGCGAUAGCGCCAACGUUCUCAACUAUGACACGCAAAACGCGUGCUCCGUGGAAUGGAGUUUAUCAUG the value was not above -4.2; for GGAUCUUCUCGAUCUAACAAAAAAGACAAAUCUGCCACAAAGCUUGCGAGCAUCUACGGAUGCAGAGGCGGCAGCCUUCGGUGGCGCGAUAGCGCCAACGUUCUCAACUAUGACACGCAAAACGCGUGCUCCGUUGAAUGGAGCUUAUCAGG, not above -4.2.
As for GGAUCUUCUCGAUCUAACAAAAAAGACAAAUCUGCCACAAAGCUUGAGAGCAUGUUCGGAUGCAGAGGCGGCAGCCUUCGGUGGCGGGAUAGCGCCAAGGUUCUCAACUAUGACACGCAAAACGCGUGCUCCGUUGAAUGGAGUUUAUCAUG, the “polymerase ribozyme fitness (log ratio)” value is not above -4.2.
For GGAUCUUCUCGAUCUAACAAAAAAGACAAAUCUGCCACAAAGCUUGAGAGCAUUAUCGGAUGCAGAGGCGGCAGCCUUCGGUGGCGCGAUAGCGCCAACGUUCUCAACUAUGACACGCAGAACGCGUGCUCCGUUGAAUGGAUUUUAUCAUG the value was -2.38.
GGAUCUUCUCGAUCUAACAAAAAAGACAAAUCUGCCAGAAAGCUUGAGAGCAUCUUCGGAUGCAGAGGCGGCAGCCUUCGGUGGCGCGAUAACGCCAACGUUCUCAACUAUGACACGCAAAACGCGUGCUCCGUUGAAUGGAGUUUAUCAUG: the “polymerase ribozyme fitness (log ratio)” value was -4.14.
For GGAUCUUCUCGAUCUAACAAAAAAGACAAAUCUGCCACAAAGCUUGAGAGCGUCUUCCGAUGCAGAGGCGGCAGCCUUCGGUGGCGCGAUAGCGCCAACGUUCUCAACUAUGACACGCAAAACGCGUGCUCCGUUGAAUGGAGUUUAUCAUG the value was 0.885; for GGAUCUUCUCGAUCUAACAAAAAAGACAAAUCUGCCACAAAGCUUGAGAGCAUCUUCGGAUGCAGAGGCGGCAGCCUUCGGUGGCGCGAUAGCACCAACGUUCUCAACUAUGACACGCAAAACGCGUGCUCCGUUGAAUAGAGUUUAUCAUG, -3.51.
In the case of GGAUCUUCUCGAUCUCACAAAAAAGACAAAUCUGCCACAAAGCUUGAGAACAUCUUCGGAUGCGGAGGCGGCAGACUUCGGUCGCGCGAUAGCGCCAACGUUCUCAACUAUGACACGCAAAACGCGUGCUACGUUGAAUGGAGUUUAUCAUG it was not above -4.2; in that of GGAUCUUCUCGAUGUAACAAAAAAGACAAAUCUGCCACAAAGCUUGAGAACAUCUUCGGAUGCAGAGGCGGCAGCCUUCGGUGGCGCGAUAGCGCCAACGUUCUCAACUAUGACACGCAAAACGCGUGCUCCGUUGAAUGGAGUUUAUCAUG, -3.35.
In the case of GGAUCUUCUCGAUCUAACAAAAAAGACAAAUCUGCCACAAAGCUUGAGAGCAUGUUCGGAUGCAGAGGCGGCACCCUUCAGUGGCGCGAUAGCGCUAACGUUCUCAACUAUGACACGCAAAACGCGUGCUCCGUUGAUUGGAGUUUAUCAUG it was not above -4.2.
Turning to GGAUCUUCUCAAUCUUACAAUAAAGACAAAUCUGCCACAAAGCUUGAGAGCAUCUUCGGUUGAAGAGGCGGCAGCCUUCGGUGGAGCGAUAGCGCCAACGUUCUCAACUAUGACACGCAAAACGCUUGCUCCGUUGAAUGGAGUUUAUCAUG, the “polymerase ribozyme fitness (log ratio)” value is not above -4.2.
In the case of GGAUCUUCUCGAUCUAACAAAAAAGACAAAUCUGCCACAAAGCUUGAGAGCAUCUUCGGAUGCAGAGGCGGCAGCCUUCGGUGGCGCGAUAGCGCCAACUUUCUCAACUAUGACACGCAAAACGGGUGCUCCGUUGAAUGGAGUUUAUCAUG it was -4.05; in that of GGAUCUUCUCGAUCUAACAAAAAAGACAAAUCUGCCACAAACCUUGAGAGCAUCUUCGGAUGCAGAGGCGGCAGCCUUCCGUGGCUCGAUAGCGCCAACGUUCUCAACUAUGACACGUAAGACGCGUGCUCCGUUGAAUGGAGUUUAUCGUG, not above -4.2; in that of GGAUCUUCUCGAUCUAACAAAAAAGACAAAUCUGCCACAAAGCUUGAGAGUAUCUUCGGAUGCAGAGGCCGCAGCCUUCGGUGGCGCGAUAGGGCCAACGUUCUCAACUAUGACACGCAAAACGCGUGCUCCGUUGAAUGGAGUUUAUCAUG, not above -4.2.
For GGAUCUUCUCGAUCUAACAAAAAAGACAAAUCUGCCACAAAGCUUGAGCGCAUCUUCGGAUGCAGAGGCGGCAGCCUUCGGUGGCGCGAUAGCGCCAACGUUCUCUACUAUGACACGCAAAACGCGUGCUCCGUUGAAUGGAGUUUAUCAUG, the “polymerase ribozyme fitness (log ratio)” value was -3.68.
For GGAUCUUCUCGAUCUAACAAAAAAGACAAAUCUGGCACAAAGCUUGAGAGCAUCUUCGGAUGCAGAGGCGGCAGCCUUCGGUGGCGCGAUAGCUCCUACGUUCUCAACUAUGACACGCAAAACGCGUGCUCCGUUGAAUGGAGUUUAUCAUG the value was -4.17.
